The supplement of paper PMC10567573

B1: NEK8 (parent)
chain: YTFGSNQHGQLGTNTRRGSRAPCK

Variants of: B1
Assay: protein stability index of a GFP-peptide fusion (GPS, HEK-293T) (PSI 1-6); higher = more stable
Details: c terminus: a fixed tail appended
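Further: lentivirally expressed fusions sorted by FACS into six bins by GFP to DsRed ratio, PSI derived from sequencing read proportions per bin multiplied by bin number.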

Row | Variant | protein stability index
1 | YTFGSNQHGQLLTNTRRGSRAPCK [G12L] | 4.15
2 | YTFGSNQHGQLMTNTRRGSRAPCK [G12M] | 3.84
3 | YTFGSNQHGQLNTNTRRGSRAPCK [G12N] | 4.18
4 | YTFGSNQHGQLPTNTRRGSRAPCK [G12P] | 4.43
5 | YTFGSNQHGQLQTNTRRGSRAPCK [G12Q] | 3.93
6 | YTFGSNQHGQLRTNTRRGSRAPCK [G12R] | 4.11
7 | YTFGSNQHGQLSTNTRRGSRAPCK [G12S] | 3.97
8 | YTFGSNQHGQLTTNTRRGSRAPCK [G12T] | 4.32
9 | YTFGSNQHGQLVTNTRRGSRAPCK [G12V] | 4.11
10 | YTFGSNQHGQLWTNTRRGSRAPCK [G12W] | 2.73
11 | YTFGSNQHGQLYTNTRRGSRAPCK [G12Y] | 3.83
12 | YTFGSNQHGQLGANTRRGSRAPCK [T13A] | 4.44
13 | YTFGSNQHGQLGCNTRRGSRAPCK [T13C] | 3.13
14 | YTFGSNQHGQLGDNTRRGSRAPCK [T13D] | 4.44
15 | YTFGSNQHGQLGENTRRGSRAPCK [T13E] | 4.37
16 | YTFGSNQHGQLGFNTRRGSRAPCK [T13F] | 3.31
17 | YTFGSNQHGQLGGNTRRGSRAPCK [T13G] | 4.43
18 | YTFGSNQHGQLGHNTRRGSRAPCK [T13H] | 4.35
19 | YTFGSNQHGQLGINTRRGSRAPCK [T13I] | 3.15
20 | YTFGSNQHGQLGKNTRRGSRAPCK [T13K] | 3.79
21 | YTFGSNQHGQLGLNTRRGSRAPCK [T13L] | 3.58
22 | YTFGSNQHGQLGMNTRRGSRAPCK [T13M] | 3.72
23 | YTFGSNQHGQLGNNTRRGSRAPCK [T13N] | 4.06
24 | YTFGSNQHGQLGPNTRRGSRAPCK [T13P] | 4.45

Row | Variant | protein stability index
25 | YTFGSNQHGQLGQNTRRGSRAPCK [T13Q] | 4.35
26 | YTFGSNQHGQLGRNTRRGSRAPCK [T13R] | 4.11
27 | YTFGSNQHGQLGSNTRRGSRAPCK [T13S] | 4.3
28 | YTFGSNQHGQLGVNTRRGSRAPCK [T13V] | 3.67
29 | YTFGSNQHGQLGWNTRRGSRAPCK [T13W] | 3.22
30 | YTFGSNQHGQLGYNTRRGSRAPCK [T13Y] | 3.62
31 | YTFGSNQHGQLGTATRRGSRAPCK [N14A] | 3.38
32 | YTFGSNQHGQLGTCTRRGSRAPCK [N14C] | 2.29
33 | YTFGSNQHGQLGTDTRRGSRAPCK [N14D] | 4.35
34 | YTFGSNQHGQLGTETRRGSRAPCK [N14E] | 3.69
35 | YTFGSNQHGQLGTFTRRGSRAPCK [N14F] | 3.71
36 | YTFGSNQHGQLGTGTRRGSRAPCK [N14G] | 3.49
37 | YTFGSNQHGQLGTHTRRGSRAPCK [N14H] | 4.07
38 | YTFGSNQHGQLGTITRRGSRAPCK [N14I] | 2.73
39 | YTFGSNQHGQLGTKTRRGSRAPCK [N14K] | 3.88
40 | YTFGSNQHGQLGTLTRRGSRAPCK [N14L] | 3.51
41 | YTFGSNQHGQLGTMTRRGSRAPCK [N14M] | 3.44
42 | YTFGSNQHGQLGTPTRRGSRAPCK [N14P] | 3.77
43 | YTFGSNQHGQLGTQTRRGSRAPCK [N14Q] | 3.69
44 | YTFGSNQHGQLGTRTRRGSRAPCK [N14R] | 3.88
45 | YTFGSNQHGQLGTSTRRGSRAPCK [N14S] | 3.88
46 | YTFGSNQHGQLGTTTRRGSRAPCK [N14T] | 2.98
47 | YTFGSNQHGQLGTVTRRGSRAPCK [N14V] | 2.06
48 | YTFGSNQHGQLGTWTRRGSRAPCK [N14W] | 3.21

Row | Variant | protein stability index
49 | YTFGSNQHGQLGTYTRRGSRAPCK [N14Y] | 3.63
50 | YTFGSNQHGQLGTNARRGSRAPCK [T15A] | 3.9
51 | YTFGSNQHGQLGTNCRRGSRAPCK [T15C] | 3.56
52 | YTFGSNQHGQLGTNDRRGSRAPCK [T15D] | 3.85
53 | YTFGSNQHGQLGTNERRGSRAPCK [T15E] | 4.17
54 | YTFGSNQHGQLGTNFRRGSRAPCK [T15F] | 3.56
55 | YTFGSNQHGQLGTNGRRGSRAPCK [T15G] | 3.77
56 | YTFGSNQHGQLGTNHRRGSRAPCK [T15H] | 4.05
57 | YTFGSNQHGQLGTNIRRGSRAPCK [T15I] | 4.14
58 | YTFGSNQHGQLGTNKRRGSRAPCK [T15K] | 3.94
59 | YTFGSNQHGQLGTNLRRGSRAPCK [T15L] | 3.7
60 | YTFGSNQHGQLGTNMRRGSRAPCK [T15M] | 4.09
61 | YTFGSNQHGQLGTNNRRGSRAPCK [T15N] | 3.82
62 | YTFGSNQHGQLGTNPRRGSRAPCK [T15P] | 3.6
63 | YTFGSNQHGQLGTNQRRGSRAPCK [T15Q] | 4.25
64 | YTFGSNQHGQLGTNRRRGSRAPCK [T15R] | 3.98
65 | YTFGSNQHGQLGTNSRRGSRAPCK [T15S] | 4.28
66 | YTFGSNQHGQLGTNVRRGSRAPCK [T15V] | 4.17
67 | YTFGSNQHGQLGTNWRRGSRAPCK [T15W] | 3.49
68 | YTFGSNQHGQLGTNYRRGSRAPCK [T15Y] | 3.67
69 | YTFGSNQHGQLGTNTARGSRAPCK [R16A] | 3.81
70 | YTFGSNQHGQLGTNTCRGSRAPCK [R16C] | 3.36
71 | YTFGSNQHGQLGTNTDRGSRAPCK [R16D] | 4.05
72 | YTFGSNQHGQLGTNTERGSRAPCK [R16E] | 3.63

Row | Variant | protein stability index
73 | YTFGSNQHGQLGTNTFRGSRAPCK [R16F] | 2.57
74 | YTFGSNQHGQLGTNTGRGSRAPCK [R16G] | 4.24
75 | YTFGSNQHGQLGTNTHRGSRAPCK [R16H] | 4.25
76 | YTFGSNQHGQLGTNTIRGSRAPCK [R16I] | 3.56
77 | YTFGSNQHGQLGTNTKRGSRAPCK [R16K] | 3.67
78 | YTFGSNQHGQLGTNTLRGSRAPCK [R16L] | 3.82
79 | YTFGSNQHGQLGTNTMRGSRAPCK [R16M] | 3.63
80 | YTFGSNQHGQLGTNTNRGSRAPCK [R16N] | 4.02
81 | YTFGSNQHGQLGTNTPRGSRAPCK [R16P] | 3.94
82 | YTFGSNQHGQLGTNTQRGSRAPCK [R16Q] | 3.97
83 | YTFGSNQHGQLGTNTSRGSRAPCK [R16S] | 3.85
84 | YTFGSNQHGQLGTNTTRGSRAPCK [R16T] | 4.21
85 | YTFGSNQHGQLGTNTVRGSRAPCK [R16V] | 3.99
86 | YTFGSNQHGQLGTNTWRGSRAPCK [R16W] | 1.8
87 | YTFGSNQHGQLGTNTYRGSRAPCK [R16Y] | 3.37
88 | YTFGSNQHGQLGTNTRAGSRAPCK [R17A] | 3.46
89 | YTFGSNQHGQLGTNTRCGSRAPCK [R17C] | 3.07
90 | YTFGSNQHGQLGTNTRDGSRAPCK [R17D] | 3.84
91 | YTFGSNQHGQLGTNTREGSRAPCK [R17E] | 4.07
92 | YTFGSNQHGQLGTNTRFGSRAPCK [R17F] | 3.18
93 | YTFGSNQHGQLGTNTRGGSRAPCK [R17G] | 4.09
94 | YTFGSNQHGQLGTNTRHGSRAPCK [R17H] | 3.94
